{"source": "paper PMC10725492", "about": "(2023)", "target": "recombinant APP N-terminal (18-612) fragment (UniProt P05067-4 18-612)", "sequence (P05067 other isoform, or with tags, fused parts or gaps)": "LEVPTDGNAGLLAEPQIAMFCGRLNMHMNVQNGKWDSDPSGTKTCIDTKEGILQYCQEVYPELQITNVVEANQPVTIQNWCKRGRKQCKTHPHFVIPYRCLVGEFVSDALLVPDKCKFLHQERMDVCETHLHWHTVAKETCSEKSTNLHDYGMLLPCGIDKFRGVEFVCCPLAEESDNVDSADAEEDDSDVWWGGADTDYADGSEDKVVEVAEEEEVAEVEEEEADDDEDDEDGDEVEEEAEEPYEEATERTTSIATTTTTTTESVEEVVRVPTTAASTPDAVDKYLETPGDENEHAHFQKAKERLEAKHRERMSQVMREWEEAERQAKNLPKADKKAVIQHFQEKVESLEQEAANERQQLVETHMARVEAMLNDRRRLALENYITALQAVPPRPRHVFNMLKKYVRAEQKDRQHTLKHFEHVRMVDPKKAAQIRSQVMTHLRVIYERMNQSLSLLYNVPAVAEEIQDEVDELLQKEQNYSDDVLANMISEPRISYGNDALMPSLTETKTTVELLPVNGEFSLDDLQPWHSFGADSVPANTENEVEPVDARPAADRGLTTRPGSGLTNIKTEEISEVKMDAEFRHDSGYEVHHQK", "assay": "SPR", "note": "No end group written: not given here. *: point of attachment. Palmitoyl = CCCCCCCCCCCCCCCC(=O)*"}
{"binder": "KKKKKKLKVRLASHLRK(Palmitoyl)ELRKRLLRDA", "note": "[AY51 peptide]", "values": [{"measurement": "koff", "result": 0.000356, "unit": "s⁻¹"}]}
